In paper PMC4908968:

Assays:
[1] = target: Full-length (FL) MMTV integrase (IN), wild type (mouse mammary tumor virus (MMTV)); assay: SEC
[2] = target: Full-length (FL) MMTV integrase (IN), wild type (mouse mammary tumor virus (MMTV)); assay: AUC

Substance: Full-length (FL) MMTV integrase (IN), wild type (enzyme)
- stoichiometry N [1]: 2
- stoichiometry N [2]: 8
